Reference: patent US20100210517A1 (RAPTOR PHARMACEUTICAL, published 2010)

Assays:
[1] = biological target: T1, LRP2 CR89 Y1042W R1088D (human, UniProt P98164 1022-1105); assay: solid-phase assay; OD at the highest ligand concentration as percent of the highest OD of all ligands
T1 construct: also called WVWD
T1 chain: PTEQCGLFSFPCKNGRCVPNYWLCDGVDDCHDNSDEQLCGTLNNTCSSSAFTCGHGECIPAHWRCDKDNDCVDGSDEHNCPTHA
Method: (§1) Solid phase binding assays-Purified, refolded CR protein (1 μg) was bound to Nunc Maxisorp™ 96-well plates in TBS pH 8 supplemented with 5 mM CaCl₂ (TBSC) overnight at 4° C. Wells were washed with TBSC and then blocked with TBSC containing 2% bovine serum albumin (BSA). […] Control wells contained no added ligand. As an additional control, to determine whether the absence of calcium affected binding, 10 mM EGTA was included in the incubation medium for some samples. […] Excess primary antibody was removed and wells washed before incubation with the secondary antibody, HRP-conjugated goat anti rabbit IgG (Bio-Rad). After washing, TMB substrate solutions (Bio-Rad) were added to detect HRP. Color development was stopped with 1N HCl. Absorption at 450 nm was measured with a microplate spectrophotometer (Molecular Devices). Data were plotted and Kd values derived by non-linear regression with the assumption of single-site binding (GraphPad Prism).
(§2) To test this idea, mutant LRP2 CR89 were prepared in which the native, non-canonical residues at these positions were sequentially substituted with the non-native, canonical residues. As defined above, the A, C, A′, C′ string for LRP2 CR89 is YVWR. Mutants included LRP2 CR89 Y1042W (WVWR), LRP2 CR89 V1047D (YDWR), LRP2 CR89 R1088D (YVWD), LRP2 CR89 V1047D R1088D (YDWD), LRP2 CR89 Y1042W V1047D R1088D (WDWD), LRP2 CR89 Y1042W V1047D (WDWR), LRP2 CR89 Y1042W R1088D (WVWD).

[2] = biological target: T2, LRP2 CR89 V1047D (human, UniProt P98164 1022-1105); assay: as above
T2 construct: also called YDWR
T2 sequence: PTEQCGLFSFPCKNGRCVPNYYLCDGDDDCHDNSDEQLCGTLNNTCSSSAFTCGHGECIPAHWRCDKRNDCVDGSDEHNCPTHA
Method: as §1, §2

[3] = biological target: T3, LRP2 CR89 Y1042W V1047D (human, UniProt P98164 1022-1105); assay: as above
T3 construct: also called WDWR
T3 chain: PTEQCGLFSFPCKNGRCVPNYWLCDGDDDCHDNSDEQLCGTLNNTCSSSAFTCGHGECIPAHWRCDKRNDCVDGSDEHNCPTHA
Method: as §1, §2

[4] = biological target: T4, LRP2 CR89 Y1042W V1047D R1088D (human, UniProt P98164 1022-1105); assay: as above
T4 construct: also called WDWD
T4 chain: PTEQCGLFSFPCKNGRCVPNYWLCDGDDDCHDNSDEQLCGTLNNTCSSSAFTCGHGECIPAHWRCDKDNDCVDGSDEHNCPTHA
Method: as §1, §2

[5] = biological target: T5, LRP2 CR89 R1088D (human, UniProt P98164 1022-1105); assay: as above
T5 construct: also called YVWD
Method: as §1, §2

[6] = biological target: T6, LRP2 CR89 V1047D R1088D (human, UniProt P98164 1022-1105); assay: as above
T6 construct: also called YDWD
T6 sequence: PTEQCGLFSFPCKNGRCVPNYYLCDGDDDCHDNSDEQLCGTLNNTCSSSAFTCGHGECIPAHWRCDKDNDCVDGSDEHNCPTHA
Method: as §1, §2

[7] = biological target: T7, LRP2 CR89 (human, UniProt P98164 1025-1102); assay: as above
T7 construct: domain: CR89; also called YVWR; L2 CR89; not shown: N-terminal hexahistidine and S-peptide tags of pET30(+)a
Method: as §1, §2

[8] = biological target: T8, LRP1 CR3-5 (human); assay: as above
T8 construct: range 852-973; also called L1 CR3-5
Method: as §1

[9] = biological target: T7, LRP2 CR89; assay: as above; remark: listed apart in the source
Method: as §1

[10] = biological target: T8, LRP1 CR3-5; assay: solid-phase assay on coated CR protein, single-site non-linear fit
Method: Data were plotted and fitted by non-linear regression with the assumption of a single binding site (GraphPad Prism). Kd values with standard deviations were derived from the regression analysis.
as §1

[11] = biological target: T8, LRP1 CR3-5; assay: apparent Kd of the variant for the CR pair used in selection; no unit printed in Table 4, nM per Table 2 and paragraph 292
[12] = biological target: T9, LRP2 CR3031 (human, UniProt P98164 3677-3755); assay: solid-phase assay on coated CR protein, each ligand at 80 nM, blank-corrected absorbance
T9 construct: domain: CR3031; Its cloning is not described in the methods; not shown: N-terminal hexahistidine and S-peptide tags of pET30(+)a
Method: (§3) Samples were tested twice, in duplicate, and values combined. Means and standard deviations were then calculated. Blank values obtained from wells incubated in the absence of ligand were used to correct absorbance data.
as §1

[13] = biological target: T10, LRP2 CR2728 (human, UniProt P98164 3552-3631); assay: as above
T10 construct: domain: CR2728; Its cloning is not described in the methods; not shown: N-terminal hexahistidine and S-peptide tags of pET30(+)a
T10 sequence (looked up): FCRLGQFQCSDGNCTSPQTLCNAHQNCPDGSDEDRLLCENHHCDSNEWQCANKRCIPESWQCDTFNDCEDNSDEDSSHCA
Method: as §3, §1

[14] = biological target: T11, MAT CR12 (human, UniProt Q9Y5Y6 452-524); assay: as above
T11 construct: also called ST14 CR12; matriptase CR12
T11 sequence: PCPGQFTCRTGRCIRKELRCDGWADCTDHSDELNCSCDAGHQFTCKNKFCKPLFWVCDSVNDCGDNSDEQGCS
Method: as §3, §1

[15] = biological target: T5, LRP2 CR89 R1088D; assay: solid-phase assay on coated CR protein, anti-RAP detection, A450
Method: as §1, §2

[16] = biological target: T8, LRP1 CR3-5; assay: solid-phase binding assay, CR protein coated on plate, anti-RAP detection
[17] = biological target: T12, VLDLR CR6-8 (human, UniProt P98155 235-358); assay: as above
T12 construct: range 235-358; also called V CR6-8; not shown: N-terminal hexahistidine and S-peptide tags of pET30(+)a

[18] = biological target: T7, LRP2 CR89; assay: as above

T8 sequence (Q07954 852-973): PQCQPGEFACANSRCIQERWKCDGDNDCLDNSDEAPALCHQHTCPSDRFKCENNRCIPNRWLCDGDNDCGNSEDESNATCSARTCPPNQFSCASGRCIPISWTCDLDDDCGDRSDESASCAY
T7 sequence (P98164 1025-1102): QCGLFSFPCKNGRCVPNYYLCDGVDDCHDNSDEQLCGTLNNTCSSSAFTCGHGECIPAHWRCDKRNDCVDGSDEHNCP
T9 sequence (P98164 3677-3755): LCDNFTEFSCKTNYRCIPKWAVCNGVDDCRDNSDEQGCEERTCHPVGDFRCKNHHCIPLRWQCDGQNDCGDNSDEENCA

B1: RAP d3 (wild-type domain 3 of human RAP, amino acids 201-319 of mature RAP) (ligand)
chain: LDRLRRVSHQGYSTEAEFEEPRVIDLWDLEQSANLTDKELEAFREELKHFEAKIEKHNHYQKQLEIAHEKLRHAESVGDGERVSRSREKHALLEGRTKELGYTVKKHLQDLSGRISRAR
notes: Expressed in E. coli from pET30(+)a, Ni-NTA purified; also called wild-type RAP d3; recombinant RAP d3; not shown: N-terminal hexahistidine and S-peptide tags of pET30(+)a
**Q.** Which “% max bind” value [1] does the source give for B1 here?
**A.** Its value is 16%.

**Q.** What about the “% max bind” value [2] of the same binder?
**A.** Its value is 6%.

**Q.** And the “% max bind” value [3]?
**A.** The value was 11%.

**Q.** What about the “% max bind” value [4] of the same binder?
**A.** The value was 15%.

**Q.** And the “% max bind” value [5]?
**A.** The value was 7%.

**Q.** And the “% max bind” value [6]?
**A.** The value was 6%.

**Q.** What about the “% max bind” value [7] of the same binder?
**A.** Its value is 7%.

**Q.** What about the “% max” value [8] of the same binder?
**A.** The value was 76%.

**Q.** What about the “% max” value [9] of the same binder?
**A.** The value was 5%.

**Q.** What about the Kd [10] of the same binder?
**A.** The Kd was 16 nM.

**Q.** What about the Kd [11] of the same binder?
**A.** Its Kd is 16 nM.

**Q.** Does B1 bind [12]?
**A.** Result: no binding (tested: 80 nM)

**Q.** Does B1 bind [13]?
**A.** Result: no binding (tested: 80 nM)

**Q.** Does B1 bind [14]?
**A.** Result: no binding (tested: 80 nM)

**Q.** Does B1 bind [15]?
**A.** Result: no binding (tested: 100 nM)

**Q.** And the Kd [16]?
**A.** Its Kd is 11 nM.

**Q.** And the Kd [17]?
**A.** The Kd was > 300 nM.

**Q.** And the Kd [18]?
**A.** Its Kd is > 300 nM.
